Numbering of substitutions follows the chain as printed. Values belong to the binder of their own block, whether it stands above or below them.
How the values were obtained:
[1] = molecular target: T1, recombinant extracellular domain of human CD47-Fc fusion protein (human, UniProt Q08722 19-139); assay: ELISA on plate-coated recombinant human CD47 extracellular domain-Fc, A450; x axis printed as log10 values under the unit nM
T1 construct: extracellular domain; also called huCD47 ECD; CD47-Fc fusion protein (R&D systems); not shown: Fc part of the bought fusion protein; not described

human ABCB1 on cells [2] = molecular target: T2, human ABCB1 on cells (human, UniProt P08183 1-1280); assay: flow cytometry, DX5 CD47 KO cells, % positive cells
T2 construct: whole, on cells; also called MDR1; Pgp

human ABCB1 on cells [3] = molecular target: T2, human ABCB1 on cells; assay: flow cytometry, DX5/ADR CD47 WT cells (carry both ABCB1 and CD47), % positive cells
human CD47 on cells [4] = molecular target: T3, human CD47 on cells (human, UniProt Q08722 19-323); assay: receptor occupancy assay on A2780ADR cells (carry both ABCB1 and CD47), flow cytometry; free CD47 detected with Alexa 647 anti-hCD47 CC2C6 (competitor), direct binding with PE anti-human IgG Fc
T3 construct: also called hCD47; CD47 antigen

[5] = molecular target: T4, cynomolgus CD47 on red blood cells (cynomolgus, UniProt A0A5F8AK49 19-323 (rhesus entry)); assay: flow cytometry on cynomolgus RBC, donor Cy745
T4 construct: whole, on cells; The assay target is the red blood cell; also called cynomolgus Red Blood Cells

human CD47 on cells [6] = molecular target: T3, human CD47 on cells; assay: flow cytometry on human RBC, donor D834
[7] = molecular target: T4, cynomolgus CD47 on red blood cells; assay: flow cytometry on cynomolgus RBC, donor Cy746
human CD47 on cells [8] = molecular target: T3, human CD47 on cells; assay: flow cytometry on red blood cells (sentence follows Table 9, human RBC)
human CD47 on cells [9] = molecular target: T3, human CD47 on cells; assay: flow cytometry on human RBC, donor D837
human CD47 on cells [10] = molecular target: T3, human CD47 on cells; assay: flow cytometry on human RBC, donor D836
[11] = molecular target: T4, cynomolgus CD47 on red blood cells; assay: flow cytometry on cynomolgus RBC, donor Cy744
human CD47 on cells [12] = molecular target: T3, human CD47 on cells; assay: flow cytometry on human RBC, donor D835
[13] = molecular target: T4, cynomolgus CD47 on red blood cells; assay: flow cytometry on cynomolgus RBC, donor Cy747
human CD47 on cells [14] = molecular target: T3, human CD47 on cells; assay: flow cytometry, DX5 B1 KO (ABCB1 knock-out) cells, % positive cells
human ABCB1 on cells [15] = molecular target: T2, human ABCB1 on cells; assay: flow cytometry, DX5 CD47 knock-out cells ('DX5 KT14 KO'), MFI
human ABCB1 on cells [16] = molecular target: T2, human ABCB1 on cells; assay: flow cytometry, DX5 WT cells (carry both ABCB1 and CD47), MFI
human ABCB1 on cells [17] = molecular target: T2, human ABCB1 on cells; assay: receptor occupancy assay on A2780ADR cells, curve 'BiS-Direct Binding' (PE anti-human IgG Fc); the cells carry both antigens, the target is named after the receptor whose free signal falls in the same panel
human ABCB1 on cells [18] = molecular target: T2, human ABCB1 on cells; assay: flow cytometry, DX5 CD47 KO cells, % positive cells; remark: listed apart in the source
human CD47 on cells [19] = molecular target: T3, human CD47 on cells; assay: flow cytometry, DX5 B1 KO (ABCB1 knock-out) cells, % positive cells; remark: listed apart in the source
human CD47 on cells [20] = molecular target: T3, human CD47 on cells; assay: receptor occupancy assay on A2780ADR cells, curve 'BiS-Direct Binding' (PE anti-human IgG Fc); the cells carry both antigens, the target is named after the receptor whose free signal falls most in the same panel
human ABCB1 on cells [21] = molecular target: T2, human ABCB1 on cells; assay: receptor occupancy assay on A2780ADR cells, curve 'BiS-Direct Binding' (PE anti-human IgG Fc); the cells carry both antigens, the target is named after the receptor whose free signal falls in the same panel; remark: listed apart in the source

EC50 (read off the curve) [1]: ~0.08 nM
B1: 15D3 hmz DD/KT14 KK/MRK16 hmz bispecific antibody (bispecific antibody, human IgG1)
heavy 1: not shown
heavy 2: not shown
VL: DIVMTQTPLSSPVTLGQPASISCRSSQSIVHSTGNTYLEWYQQRPGQPPRLLIYKISNRFSGVPDRFSGSGAGTDFTLKISRVEAEDVGVYYCFQASHFPRTFGGGTKLEIKR
notes: the general methods state a human kappa constant region

EC50 (read off the curve) (human ABCB1 on cells [2]): ~5 nM | EC50 (read off the curve) (human ABCB1 on cells [3]): ~0.8 nM | binding result (human CD47 on cells [4]): binds
B2: 15D3hmz HIR2/KT14 KbR1/B1VL6/CDR3v2a (bispecific antibody, human IgG1, kappa)
heavy 1: EVQLVESGGVVVQPGGSLRLSCAASGFTFSRYTMSWVRQAPGKGLEWVATISSGGGNTYYPDSVKGRFTVSRDNSKNSLYLQMNSLRTEDTALYYCARYGAGDAWFAYWGQGTLVTVSSASTKGPSVFPLAPSSKSTSGGTAALGCLVKDYFPEPVTVSWNSGALTSGVHTFPAVLQSSGLYSLSSVVTVPSSSLGTQTYICNVNHKPSNTKVDKRVEPKSCDKTHTCPPCPAPELLGGPSVFLFPPKPKDTLMISRTPEVTCVVVDVSHEDPEVKFNWYVDGVEVHNAKTKPREEQYNSTYRVVSVLTVLHQDWLNGKEYKCKVSNKALPAPIEKTISKAKGQPREPQVCTLPPSREEMTKNQVSLSCAVKGFYPSDIAVEWESNGQPENNYKTTPPVLDSDGSFVLVSKLTVDKSRWQQGNVFSCSVMHEALHNHYTQKSLSLSPG
heavy 2: not shown
light: DIVMTQSPLSLPVTPGEPASISCRSSQSLVHSNGNTYLEWYLQKPGQSPQLLIYKVSNRFSGVPDRFSGSGSGTDFTLKISRVEAEDVGVYYCFQGSHFPRTFGQGTKLEIKRTVAAPSVFIFPPSDEQLKSGTASVVCLLNNFYPREAKVQWKVDNALQSGNSQESVTEQDSKDSTYSLSSTLTLSKADYEKHKVYACEVTHQGLSSPVTKSFNRGEC
notes: Humanized ABCB1 x CD47 IgG1 bispecific with a common light chain

% Positive [5]: 2.2% | % Positive (human CD47 on cells [6]): 0.7% | % Positive [7]: 15.1% | binding result (human CD47 on cells [8]): no binding | % Positive (human CD47 on cells [9]): 0.4% | % Positive (human CD47 on cells [10]): 0.2% | % Positive [11]: 0.7% | % Positive (human CD47 on cells [12]): 0.4% | % Positive [13]: 26.5%
B3: 15D3VHhuIgG1DD/KT14KK/B1.89v1.huL1(KV2)hmz (bispecific antibody)
heavy 1: not shown
heavy 2: not shown
light: B2 light with S28T, L29I, N58K, G96A
notes: also called KB1-1421; 15D3VHhuIgG1DD/KT14KK/B1.89v1.huL1(KV2)hmzLC

binding result (human CD47 on cells [14]): binds | EC50 (read off the curve) (human ABCB1 on cells [15]): ~20 nM | EC50 (read off the curve) (human ABCB1 on cells [16]): ~10 nM | EC50 (read off the curve) (human ABCB1 on cells [17]): ~200 nM
B4: 15D3 hmz HIR2/KT14 KBR1/MRK16v4b (bispecific antibody, IgG1)
heavy 1: B2 heavy 1
heavy 2: not shown
light: DIVMTQTPLSSPVTLGQPASISCRSSQSIVHSTGNTYLEWYQQKPGQPPRLLIYKISNRFSGVPDRFSGSGSGTDFTLKISRVEAEDVGVYYCFQASHFPRTFGQGTKLEIK
notes: Humanized ABCB1 x CD47 IgG1 bispecific with a common light chain; the kappa constant region comes from the general cloning description; not shown: human kappa constant light chain

% Positive [5]: 10.6% | EC50 (read off the curve) (human ABCB1 on cells [18]): ~0.4 nM | % Positive (human CD47 on cells [6]): 2% | EC50 (read off the curve) (human ABCB1 on cells [15]): ~50 nM | % Positive [7]: 57.7% | EC50 (read off the curve) (human ABCB1 on cells [16]): ~30 nM | % Positive (human CD47 on cells [9]): 1.6% | % Positive (human CD47 on cells [10]): 1.1% | EC50 (read off the curve) (human CD47 on cells [19]): ~30 nM | % Positive [11]: 7.9% | % Positive (human CD47 on cells [12]): 1.4% | EC50 (read off the curve) (human CD47 on cells [20]): ~200 nM | % Positive [13]: 74.5%
B5: 15D3 hmz HIR2/KT14 KbR1/B1.89v1.huL1(KV2) (bispecific antibody, human IgG1, kappa)
heavy 1: B2 heavy 1
heavy 2: not shown
light: B2 light with S28T, L29I, N58K, G96A
notes: as for B2

% Positive [5]: 0.7% | % Positive (human CD47 on cells [6]): 0.4% | EC50 (read off the curve) (human ABCB1 on cells [15]): ~30 nM | % Positive [7]: 2% | EC50 (read off the curve) (human ABCB1 on cells [16]): ~10 nM | % Positive (human CD47 on cells [9]): 0.5% | % Positive (human CD47 on cells [10]): 0.3% | % Positive [11]: 0.5% | % Positive (human CD47 on cells [12]): 0.4% | % Positive [13]: 3.7%
B6: ABCB1XCD47 KBisP1.1 (15D3 HC KK/KT14 HC DD/MRK16 LC) (bispecific antibody, human IgG1, kappa)
heavy 1: not shown
heavy 2: not shown
light: DVLMTQTPVSLSVSLGDQASISCRSSQSIVHSTGNTYLEWYLQKPGQSPKLLIYKISNRFSGVPDRFSGSGSGTDFTLKISRVEAEDLGVYYCFQASHFPRTFGGGTKLEIKRTVAAPSVFIFPPSDEQLKSGTASVVCLLNNFYPREAKVQWKVDNALQSGNSQESVTEQDSKDSTYSLSSTLTLSKADYEKHKVYACEVTHQGLSSPVTKSFNRGEC
notes: also called KNJYBisP1.1

binding result (human CD47 on cells [14]): no binding (tested: about 660 nM) | EC50 (read off the curve) (human ABCB1 on cells [21]): ~200 nM
B7: KB1-1401 (bispecific antibody, human IgG1, kappa)
heavy chain 1 (anti-ABCB1, DD): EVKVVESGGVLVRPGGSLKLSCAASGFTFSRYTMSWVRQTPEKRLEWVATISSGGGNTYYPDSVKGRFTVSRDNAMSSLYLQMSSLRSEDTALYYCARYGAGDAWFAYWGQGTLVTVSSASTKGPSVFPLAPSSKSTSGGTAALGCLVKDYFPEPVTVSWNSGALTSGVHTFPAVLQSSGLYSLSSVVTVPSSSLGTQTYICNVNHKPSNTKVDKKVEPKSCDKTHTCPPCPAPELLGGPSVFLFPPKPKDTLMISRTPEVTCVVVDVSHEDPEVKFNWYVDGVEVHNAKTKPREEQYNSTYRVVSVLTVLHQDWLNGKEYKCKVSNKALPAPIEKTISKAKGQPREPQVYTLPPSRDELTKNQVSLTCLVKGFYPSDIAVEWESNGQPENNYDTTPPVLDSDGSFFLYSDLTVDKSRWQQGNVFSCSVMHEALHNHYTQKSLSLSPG
heavy chain 2 (anti-CD47, KK): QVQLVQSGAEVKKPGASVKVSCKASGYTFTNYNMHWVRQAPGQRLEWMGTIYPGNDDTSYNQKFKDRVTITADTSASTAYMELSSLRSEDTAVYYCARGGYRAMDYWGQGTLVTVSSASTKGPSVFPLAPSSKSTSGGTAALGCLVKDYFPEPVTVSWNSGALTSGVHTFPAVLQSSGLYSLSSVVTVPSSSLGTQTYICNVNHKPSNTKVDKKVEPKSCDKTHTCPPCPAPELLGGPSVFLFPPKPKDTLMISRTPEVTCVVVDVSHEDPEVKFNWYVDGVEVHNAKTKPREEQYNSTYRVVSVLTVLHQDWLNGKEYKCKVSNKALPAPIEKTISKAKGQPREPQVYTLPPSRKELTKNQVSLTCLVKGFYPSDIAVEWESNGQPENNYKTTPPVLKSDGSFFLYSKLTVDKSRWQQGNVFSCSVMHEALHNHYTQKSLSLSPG
light chain: B6 light
notes: also called 15D3DD KT14KK MRK16

% Positive [5]: 98.8% | % Positive (human CD47 on cells [6]): 99.1% | % Positive [7]: 99.4% | % Positive (human CD47 on cells [9]): 99.1% | % Positive (human CD47 on cells [10]): 98.9% | % Positive [11]: 99% | % Positive (human CD47 on cells [12]): 98.9% | EC50 (read off the curve) [1]: ~0.003 nM | % Positive [13]: 99%
B8: anti-CD47 monoclonal antibody 5F9 (antibody, IgG1, V domains shown)
VH: QVQLVQSGAEVKKPGASVKVSCKASGYTFTNYNMHWVRQAPGQRLEWMGTIYPGNDDTSYNQKFKDRVTITADTSASTAYMELSSLRSEDTAVYYCARGGYRAMDYWGQGTLVTVSS
VL: DIVMTQSPLSLPVTPGEPASISCRSSQSIVYSNGNTYLGWYLQKPGQSPQLLIYKVSNRFSGVPDRFSGSGSGTDFTLKISRVEADVGVYYCFQGSHVPYTFGQGTKLEIK
notes: also called KT14; 5F9 KT14 mAb

% Positive [5]: 0.4% | % Positive [7]: 1.5% | % Positive [11]: 0.4% | % Positive [13]: 5.7%
B9: 15D3hmz16-1/KT14/MRK16v4a1 (bispecific antibody, V domains shown)
VH 1: EVQLVESGGVVVQPGGSLRLSCAASGFTFSRYTMSWVRQAPGKGLEWVATISSGGGNTYYPDSVKGRFTVSRDNSKNSLYLQMNSLRTEDTALYYCARYYRYDAWFAYWGQGTLVTVSS
VH 2: B8 VH
VL: B4 light
notes: Human IgG1/kappa bispecific with KK/DD charge-pair Fc; also called 15D3hmz16-1 KK/KT14 DD/MRK16v4a1 Bispecific; 15D316-1 DD/KT14 KK/MRK16v4a1 hmz LC

% Positive (human CD47 on cells [6]): 0.4%
B10: 15D3hmz16-1/KT14/MRK16v4a12 (bispecific antibody, V domains shown)
VH 1: B9 VH 1
VH 2: B8 VH
VL: B4 light with I56V
notes: Human IgG1/kappa bispecific

— patent US20250051471A1 (WILLIAM ROBERT ARATHOON LIVING TRUST DATED AUGUST 29 2016, published 2025)
